From US20040023883A1 (published 2004)

Assays:
[1] = biological target: IGF-I S1A on phage (G1S-A70V template) (human; bacteriophage M13); assay: competitive phage ELISA
Source text: (§1) Phage particles were harvested and resuspended in PBS buffer as described in Lowman, H. B., “Phage Display of Peptide Libraries on Protein Scaffolds,” in Cabilly, S. (ed.), Combinatorial Peptide Library Protocols (Humana Press Inc.: Totowa, N.J., 1998), pp. 249-264. Then phage concentrations were normalized to yield a maximal ELISA signal of 0.2-0.4 for each mutant (Lowman, in Cabilly, S. (ed.), supra). […] After blocking, the plates containing immobilized target were washed with 0.05% TWEEN™/PBS buffer and subsequently incubated with 80 μl/well of the premixed phage-competitor solutions for 1 hour at room temperature. After washing, bound phage was detected with 80 μl/well of a solution containing a primary rabbit anti-phage polyclonal antibody and a secondary goat anti-rabbit monoclonal antibody-horseradish peroxidase conjugate in 0.5% TWEEN 20™/PBS. o-Phenylenediamine (Sigma) and tetramethylbenzidine (Kirkegaard and Perry) were used as chromogenic substrates, resulting in product detection at 492 and 450 nm, respectively. IC₅₀ values were determined by fitting the binding data to a generic saturation curve (Lowman, in Cabilly, S. (ed.), supra).
(§2) At least two different clones of every mutant were tested.

[2] = biological target: T1, IGF-I P2A on phage (G1S-A70V template) (human; bacteriophage M13); assay: competitive phage ELISA
T1 construct: not shown: M13 gene III fragment (residues 249-406), the display carrier, and its junction to IGF-I
Source text: as §1, §2

[3] = biological target: T2, IGF-I F49A on phage (G1S-A70V template) (human; bacteriophage M13); assay: competitive phage ELISA; ratio against IGFBP-3; conditions: remark: other sources report otherwise
T2 chain: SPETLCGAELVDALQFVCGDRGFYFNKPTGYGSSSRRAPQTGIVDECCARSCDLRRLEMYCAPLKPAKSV

[4] = biological target: T2, IGF-I F49A on phage (G1S-A70V template) …; assay: competitive phage ELISA; conditions: remark: other sources report otherwise

B1: human IGFBP-1 (other, UniProt P08833 26-259, looked up)
chain: APWQCAPCSAEKLALCPPVSASCSEVTRSAGCGCCPMCALPLGAACGVATARCARGLSCRALPGEQQPLHALTRGQGACVQESDASAPHAAEAGSPESPESTEITEEELLDNFHLMAPSEEDHSILWDAISTYDGSKALHVTNIKKWKEPCRIELYRVVESLAKAQETSGEEISKFYLPNCNKNGFYHSRQCETSMDGEAGLCWCVYPWNGKRIPGSPEIRGDPNCQIYFNVQN
notes: Recombinant secreted protein
With B1 the IC50 [1] was 5.2 nM, the IC50 [2] was 11 nM and the relative specificity (relative IC50 IGFBP-1/relative IC50 IGFBP-3) [3] was greater than 28. It also gave a relative IC50 (IC50 mut/IC50 G1S-A70V) [4] greater than 100.
